Experiments:
Assay in all cases: holdup assay
Parameters in all cases: key: below the threshold = too weak to quantify, mostly under pKd 3.1 to 4
LNX2_2, Q8N448 = target: T1, LNX2_2, Q8N448
T1 sequence (Q8N448 334-432, limits assumed, looked up): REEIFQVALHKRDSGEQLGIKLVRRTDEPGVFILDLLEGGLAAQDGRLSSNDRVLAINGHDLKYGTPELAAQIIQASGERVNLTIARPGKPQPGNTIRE

SCRIB_2, Q14160 = target: SCRIB_2, Q14160
NHERF3_4, Q5T2W1 = target: T2, NHERF3_4, Q5T2W1
T2 sequence (Q5T2W1 373-468, limits assumed, looked up): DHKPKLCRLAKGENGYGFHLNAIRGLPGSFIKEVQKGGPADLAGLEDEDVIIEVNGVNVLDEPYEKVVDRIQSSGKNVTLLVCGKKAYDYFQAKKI

GRIP1_5, Q9Y3R0 = target: T3, GRIP1_5, Q9Y3R0
T3 sequence (Q9Y3R0 568-668, limits assumed, looked up): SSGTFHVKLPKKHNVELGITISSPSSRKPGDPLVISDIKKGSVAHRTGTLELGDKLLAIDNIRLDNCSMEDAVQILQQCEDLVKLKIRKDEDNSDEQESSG

GORASP2, Q9H8Y8 = target: GORASP2, Q9H8Y8
MAGI3_2, Q5TCQ9 = target: MAGI3_2, Q5TCQ9
SNTB1, Q13884 = target: T4, SNTB1, Q13884
T4 sequence (Q13884 107-205, limits assumed, looked up): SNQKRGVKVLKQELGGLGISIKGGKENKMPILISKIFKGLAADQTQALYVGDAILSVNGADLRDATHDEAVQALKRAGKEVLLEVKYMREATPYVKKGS

Inadl_2, Q8NI35 = target: Inadl_2, Q8NI35
MPDZ_5, O75970 = target: T5, MPDZ_5, O75970
T5 sequence (O75970 695-796, limits assumed, looked up): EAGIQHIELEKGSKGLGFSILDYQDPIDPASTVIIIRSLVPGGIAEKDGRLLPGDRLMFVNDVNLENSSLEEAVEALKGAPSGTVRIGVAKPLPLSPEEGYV

PICK1, Q9NRD5 = target: PICK1, Q9NRD5
TJP1_2, Q07157 = target: TJP1_2, Q07157
LNX1_2, Q8TBB1 = target: LNX1_2, Q8TBB1
SHANK1, Q9Y566 = target: T6, SHANK1, Q9Y566
T6 sequence (Q9Y566 658-767, limits assumed, looked up): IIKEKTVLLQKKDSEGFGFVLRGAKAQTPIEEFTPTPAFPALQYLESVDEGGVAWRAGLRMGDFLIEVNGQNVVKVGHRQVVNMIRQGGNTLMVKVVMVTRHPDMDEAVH

FRMPD4, Q14CM0 = target: FRMPD4, Q14CM0
GRIP2_3, Q9C0E4 = target: GRIP2_3, Q9C0E4
FRMPD2_3, Q68DX3 = target: FRMPD2_3, Q68DX3
GRID2IP_1, A4D2P6 = target: GRID2IP_1, A4D2P6
AHNAK1, Q09666 = target: AHNAK1, Q09666
LIN7C, Q9NUP9 = target: T7, LIN7C, Q9NUP9
T7 sequence (Q9NUP9 88-185, limits assumed, looked up): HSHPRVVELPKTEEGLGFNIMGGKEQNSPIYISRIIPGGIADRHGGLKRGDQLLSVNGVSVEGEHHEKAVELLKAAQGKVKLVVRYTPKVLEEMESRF

GORASP1, Q9BQQ3 = target: GORASP1, Q9BQQ3
NHERF3_3, Q5T2W1 = target: T8, NHERF3_3, Q5T2W1
T8 sequence (Q5T2W1 238-333, limits assumed, looked up): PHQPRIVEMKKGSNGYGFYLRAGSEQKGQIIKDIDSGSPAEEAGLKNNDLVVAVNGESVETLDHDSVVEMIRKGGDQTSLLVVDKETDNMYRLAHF

SIPA1L2, Q9P2F8 = target: T9, SIPA1L2, Q9P2F8
T9 sequence (Q9P2F8 945-1036, limits assumed, looked up): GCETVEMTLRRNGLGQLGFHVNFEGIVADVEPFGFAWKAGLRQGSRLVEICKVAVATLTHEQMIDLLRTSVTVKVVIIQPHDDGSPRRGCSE

DVL3, Q92997 = target: T10, DVL3, Q92997
T10 sequence (Q92997 244-331, limits assumed, looked up): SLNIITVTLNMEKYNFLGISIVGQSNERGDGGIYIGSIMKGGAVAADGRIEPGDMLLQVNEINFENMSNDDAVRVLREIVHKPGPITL

DLG3_2, Q92796 = target: T11, DLG3_2, Q92796
T11 sequence (Q92796 221-321, limits assumed, looked up): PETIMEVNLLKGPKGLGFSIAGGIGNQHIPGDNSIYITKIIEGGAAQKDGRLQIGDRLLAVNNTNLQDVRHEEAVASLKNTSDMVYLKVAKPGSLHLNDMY

DFNB31_3, Q9P202 = target: T12, DFNB31_3, Q9P202
T12 sequence (Q9P202 811-907, limits assumed, looked up): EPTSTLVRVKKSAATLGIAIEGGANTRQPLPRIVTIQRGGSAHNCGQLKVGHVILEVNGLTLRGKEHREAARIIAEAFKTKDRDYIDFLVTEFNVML

[1] = plain residues with an end cap or a label only (N-terminal biotin on a linker: ado-ado)
[2] = modified: phospho on T at position -2 from the C-terminal residue

TJP1_2, Q07157, sequence (Q07157 181-274): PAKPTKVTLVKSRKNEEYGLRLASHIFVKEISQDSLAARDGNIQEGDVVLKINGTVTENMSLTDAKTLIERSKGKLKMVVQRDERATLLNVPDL
FRMPD2_3, Q68DX3, sequence (Q68DX3 1073-1166): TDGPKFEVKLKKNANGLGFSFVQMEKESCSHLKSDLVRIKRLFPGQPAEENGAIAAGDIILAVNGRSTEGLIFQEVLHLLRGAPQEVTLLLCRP
GORASP1, Q9BQQ3, sequence (Q9BQQ3 1-208): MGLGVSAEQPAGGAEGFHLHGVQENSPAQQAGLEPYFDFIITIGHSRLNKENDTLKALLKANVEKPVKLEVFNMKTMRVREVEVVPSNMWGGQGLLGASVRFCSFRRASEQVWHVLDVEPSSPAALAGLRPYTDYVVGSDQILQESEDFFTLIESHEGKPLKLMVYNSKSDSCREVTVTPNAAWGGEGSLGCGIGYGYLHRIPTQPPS
Inadl_2, Q8NI35, sequence (Q8NI35 238-335): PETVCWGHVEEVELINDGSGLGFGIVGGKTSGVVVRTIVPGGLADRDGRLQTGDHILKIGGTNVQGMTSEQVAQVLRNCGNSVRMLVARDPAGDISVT
PICK1, Q9NRD5, sequence (Q9NRD5 17-115): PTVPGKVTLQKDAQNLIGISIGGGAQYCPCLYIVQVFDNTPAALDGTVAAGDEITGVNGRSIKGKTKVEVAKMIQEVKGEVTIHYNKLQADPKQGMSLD
FRMPD4, Q14CM0, sequence (Q14CM0 67-160): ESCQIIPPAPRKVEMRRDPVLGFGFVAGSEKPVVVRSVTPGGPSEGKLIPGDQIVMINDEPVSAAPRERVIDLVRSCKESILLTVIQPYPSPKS
SCRIB_2, Q14160, sequence (Q14160 857-960): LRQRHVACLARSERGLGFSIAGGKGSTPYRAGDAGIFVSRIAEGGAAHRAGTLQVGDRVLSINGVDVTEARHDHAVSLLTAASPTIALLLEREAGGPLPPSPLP
MAGI3_2, Q5TCQ9, sequence (Q5TCQ9 398-503): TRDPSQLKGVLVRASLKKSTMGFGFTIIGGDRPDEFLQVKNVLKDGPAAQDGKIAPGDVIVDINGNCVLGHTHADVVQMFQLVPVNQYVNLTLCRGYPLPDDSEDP
GRID2IP_1, A4D2P6, sequence (A4D2P6 1-87): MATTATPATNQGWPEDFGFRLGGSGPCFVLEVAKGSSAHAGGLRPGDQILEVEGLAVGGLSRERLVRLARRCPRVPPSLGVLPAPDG
LNX1_2, Q8TBB1, sequence (Q8TBB1 371-470): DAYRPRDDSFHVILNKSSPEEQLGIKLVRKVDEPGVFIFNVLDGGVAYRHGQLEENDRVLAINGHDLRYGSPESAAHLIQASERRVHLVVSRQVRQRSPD
GRIP2_3, Q9C0E4, sequence (Q9C0E4 238-339): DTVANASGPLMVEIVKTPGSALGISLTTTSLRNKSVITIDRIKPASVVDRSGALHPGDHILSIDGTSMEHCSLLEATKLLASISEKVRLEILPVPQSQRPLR
AHNAK1, Q09666, sequence (Q09666 4-100): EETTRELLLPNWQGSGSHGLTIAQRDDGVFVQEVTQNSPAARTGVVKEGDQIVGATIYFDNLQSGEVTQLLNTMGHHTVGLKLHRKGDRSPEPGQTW

B1: SCN8A, Q9UQD0 (peptide)
chain: RQKEVRESKC
- pKd (LNX2_2, Q8N448; [1]): below the threshold
- pKd (SCRIB_2, Q14160; [1]): 3.82
- pKd (NHERF3_4, Q5T2W1; [1]): below the threshold
- pKd (GRIP1_5, Q9Y3R0; [1]): below the threshold
- pKd (GORASP2, Q9H8Y8; [1]): below the threshold
- pKd (MAGI3_2, Q5TCQ9; [1]): 4.01
- pKd (SNTB1, Q13884; [1]): 4.99
- pKd (Inadl_2, Q8NI35; [1]): below the threshold
- pKd (MPDZ_5, O75970; [1]): below the threshold
- pKd (PICK1, Q9NRD5; [1]): 4.18
- pKd (TJP1_2, Q07157; [1]): below the threshold
- pKd (LNX1_2, Q8TBB1; [1]): below the threshold
- pKd (SHANK1, Q9Y566; [1]): below the threshold
- pKd (FRMPD4, Q14CM0; [1]): below the threshold
- pKd (GRIP2_3, Q9C0E4; [1]): below the threshold
- pKd (FRMPD2_3, Q68DX3; [1]): below the threshold
- pKd (GRID2IP_1, A4D2P6; [1]): below the threshold
- pKd (AHNAK1, Q09666; [1]): below the threshold
- pKd (LIN7C, Q9NUP9; [1]): 3.84
- pKd (GORASP1, Q9BQQ3; [1]): below the threshold
- pKd (NHERF3_3, Q5T2W1; [1]): below the threshold
- pKd (SIPA1L2, Q9P2F8; [1]): below the threshold
- pKd (DVL3, Q92997; [1]): below the threshold
- pKd (DLG3_2, Q92796; [1]): 4.1
- pKd (DFNB31_3, Q9P202; [1]): 3.95

B2: GPR12, P47775 (peptide)
chain: AQRARSPSDV
- pKd (LNX2_2, Q8N448; [1]): 3.57
- pKd (SCRIB_2, Q14160; [1]): below the threshold
- pKd (NHERF3_4, Q5T2W1; [1]): below the threshold
- pKd (GRIP1_5, Q9Y3R0; [1]): below the threshold
- pKd (GORASP2, Q9H8Y8; [1]): below the threshold
- pKd (MAGI3_2, Q5TCQ9; [1]): 3.5
- pKd (SNTB1, Q13884; [1]): below the threshold
- pKd (Inadl_2, Q8NI35; [1]): below the threshold
- pKd (MPDZ_5, O75970; [1]): below the threshold
- pKd (PICK1, Q9NRD5; [1]): 3.99
- pKd (TJP1_2, Q07157; [1]): below the threshold
- pKd (LNX1_2, Q8TBB1; [1]): below the threshold
- pKd (SHANK1, Q9Y566; [1]): below the threshold
- pKd (FRMPD4, Q14CM0; [1]): below the threshold
- pKd (GRIP2_3, Q9C0E4; [1]): below the threshold
- pKd (FRMPD2_3, Q68DX3; [1]): below the threshold
- pKd (GRID2IP_1, A4D2P6; [1]): below the threshold
- pKd (AHNAK1, Q09666; [1]): below the threshold
- pKd (LIN7C, Q9NUP9; [1]): below the threshold
- pKd (GORASP1, Q9BQQ3; [1]): below the threshold
- pKd (NHERF3_3, Q5T2W1; [1]): below the threshold
- pKd (SIPA1L2, Q9P2F8; [1]): below the threshold
- pKd (DVL3, Q92997; [1]): below the threshold
- pKd (DLG3_2, Q92796; [1]): 4.32
- pKd (DFNB31_3, Q9P202; [1]): 3.59

B3: HPV16-E6_-2P, P03126 (peptide)
chain: SSRTRRETQL
- pKd (LNX2_2, Q8N448; [2]): below the threshold
- pKd (SCRIB_2, Q14160; [2]): below the threshold
- pKd (NHERF3_4, Q5T2W1; [2]): below the threshold
- pKd (GRIP1_5, Q9Y3R0; [2]): below the threshold
- pKd (GORASP2, Q9H8Y8; [2]): below the threshold
- pKd (MAGI3_2, Q5TCQ9; [2]): below the threshold
- pKd (SNTB1, Q13884; [2]): below the threshold
- pKd (Inadl_2, Q8NI35; [2]): below the threshold
- pKd (MPDZ_5, O75970; [2]): below the threshold
- pKd (PICK1, Q9NRD5; [2]): below the threshold
- pKd (TJP1_2, Q07157; [2]): below the threshold
- pKd (LNX1_2, Q8TBB1; [2]): below the threshold
- pKd (SHANK1, Q9Y566; [2]): below the threshold
- pKd (FRMPD4, Q14CM0; [2]): 3.88
- pKd (GRIP2_3, Q9C0E4; [2]): below the threshold
- pKd (FRMPD2_3, Q68DX3; [2]): below the threshold
- pKd (GRID2IP_1, A4D2P6; [2]): below the threshold
- pKd (AHNAK1, Q09666; [2]): below the threshold
- pKd (LIN7C, Q9NUP9; [2]): 3.94
- pKd (GORASP1, Q9BQQ3; [2]): below the threshold
- pKd (NHERF3_3, Q5T2W1; [2]): below the threshold
- pKd (SIPA1L2, Q9P2F8; [2]): below the threshold
- pKd (DVL3, Q92997; [2]): below the threshold
- pKd (DLG3_2, Q92796; [2]): below the threshold
- pKd (DFNB31_3, Q9P202; [2]): 3.89

B4: TRPV6, Q9H1D0 (peptide)
chain: EDGESWEYQI
- pKd (LNX2_2, Q8N448; [1]): below the threshold
- pKd (SCRIB_2, Q14160; [1]): below the threshold
- pKd (NHERF3_4, Q5T2W1; [1]): below the threshold
- pKd (GRIP1_5, Q9Y3R0; [1]): below the threshold
- pKd (GORASP2, Q9H8Y8; [1]): 4.22
- pKd (MAGI3_2, Q5TCQ9; [1]): below the threshold
- pKd (SNTB1, Q13884; [1]): below the threshold
- pKd (Inadl_2, Q8NI35; [1]): 3.97
- pKd (MPDZ_5, O75970; [1]): below the threshold
- pKd (PICK1, Q9NRD5; [1]): below the threshold
- pKd (TJP1_2, Q07157; [1]): 3.56
- pKd (LNX1_2, Q8TBB1; [1]): below the threshold
- pKd (SHANK1, Q9Y566; [1]): below the threshold
- pKd (FRMPD4, Q14CM0; [1]): 3.73
- pKd (GRIP2_3, Q9C0E4; [1]): below the threshold
- pKd (FRMPD2_3, Q68DX3; [1]): below the threshold
- pKd (GRID2IP_1, A4D2P6; [1]): below the threshold
- pKd (AHNAK1, Q09666; [1]): below the threshold
- pKd (LIN7C, Q9NUP9; [1]): 3.72
- pKd (GORASP1, Q9BQQ3; [1]): 4.63
- pKd (NHERF3_3, Q5T2W1; [1]): below the threshold
- pKd (SIPA1L2, Q9P2F8; [1]): below the threshold
- pKd (DVL3, Q92997; [1]): below the threshold
- pKd (DLG3_2, Q92796; [1]): 4.02
- pKd (DFNB31_3, Q9P202; [1]): 3.6

Source: article PMC9482650, “Quantitative fragmentomics allow affinity mapping of interactomes” (Nature Communications, 2022)
